Consider 1 substance from publication PMC6974936.

In test [1] the target is N-terminus Huntingtin exon 1 fragment harboring pathological (109Q) polyglutamine repeats, fused with eCFP or eYFP. As to the kind of experiment: FRET or BRET; frequency-domain FLIM-FRET (phasor trajectory) in living Neuro2a cells co-expressing 109QHtt-eCFP and 109QHtt-eYFP; aggregated fraction; cells treated with 8R10Q.
For test [2] the target is unchanged. As to the kind of experiment: FRET or BRET; frequency-domain FLIM-FRET (phasor trajectory) in living Neuro2a cells co-expressing 109QHtt-eCFP and 109QHtt-eYFP; aggregated fraction; no peptide. Background: Bioluminescence resonance energy transfer reports proximity on the nanometre scale.
The target is the same in test [3]. As to the kind of experiment: FRET or BRET; frequency-domain FLIM-FRET (phasor trajectory) in living Neuro2a cells co-expressing eCFP (donor) and eYFP (acceptor) fusions; soluble fraction; no peptide.
Test [4] has the same target. As to the kind of experiment: FRET or BRET; frequency-domain FLIM-FRET (phasor trajectory) in living Neuro2a cells co-expressing 109QHtt-eCFP and 109QHtt-eYFP; soluble fraction; cells treated with 8R10Q.

Chain of N-terminus Huntingtin exon 1 fragment harboring pathological (109Q) polyglutamine repeats, fused with eCFP or eYFP (P42858 whole entry, change not shown, the tested form may be a part): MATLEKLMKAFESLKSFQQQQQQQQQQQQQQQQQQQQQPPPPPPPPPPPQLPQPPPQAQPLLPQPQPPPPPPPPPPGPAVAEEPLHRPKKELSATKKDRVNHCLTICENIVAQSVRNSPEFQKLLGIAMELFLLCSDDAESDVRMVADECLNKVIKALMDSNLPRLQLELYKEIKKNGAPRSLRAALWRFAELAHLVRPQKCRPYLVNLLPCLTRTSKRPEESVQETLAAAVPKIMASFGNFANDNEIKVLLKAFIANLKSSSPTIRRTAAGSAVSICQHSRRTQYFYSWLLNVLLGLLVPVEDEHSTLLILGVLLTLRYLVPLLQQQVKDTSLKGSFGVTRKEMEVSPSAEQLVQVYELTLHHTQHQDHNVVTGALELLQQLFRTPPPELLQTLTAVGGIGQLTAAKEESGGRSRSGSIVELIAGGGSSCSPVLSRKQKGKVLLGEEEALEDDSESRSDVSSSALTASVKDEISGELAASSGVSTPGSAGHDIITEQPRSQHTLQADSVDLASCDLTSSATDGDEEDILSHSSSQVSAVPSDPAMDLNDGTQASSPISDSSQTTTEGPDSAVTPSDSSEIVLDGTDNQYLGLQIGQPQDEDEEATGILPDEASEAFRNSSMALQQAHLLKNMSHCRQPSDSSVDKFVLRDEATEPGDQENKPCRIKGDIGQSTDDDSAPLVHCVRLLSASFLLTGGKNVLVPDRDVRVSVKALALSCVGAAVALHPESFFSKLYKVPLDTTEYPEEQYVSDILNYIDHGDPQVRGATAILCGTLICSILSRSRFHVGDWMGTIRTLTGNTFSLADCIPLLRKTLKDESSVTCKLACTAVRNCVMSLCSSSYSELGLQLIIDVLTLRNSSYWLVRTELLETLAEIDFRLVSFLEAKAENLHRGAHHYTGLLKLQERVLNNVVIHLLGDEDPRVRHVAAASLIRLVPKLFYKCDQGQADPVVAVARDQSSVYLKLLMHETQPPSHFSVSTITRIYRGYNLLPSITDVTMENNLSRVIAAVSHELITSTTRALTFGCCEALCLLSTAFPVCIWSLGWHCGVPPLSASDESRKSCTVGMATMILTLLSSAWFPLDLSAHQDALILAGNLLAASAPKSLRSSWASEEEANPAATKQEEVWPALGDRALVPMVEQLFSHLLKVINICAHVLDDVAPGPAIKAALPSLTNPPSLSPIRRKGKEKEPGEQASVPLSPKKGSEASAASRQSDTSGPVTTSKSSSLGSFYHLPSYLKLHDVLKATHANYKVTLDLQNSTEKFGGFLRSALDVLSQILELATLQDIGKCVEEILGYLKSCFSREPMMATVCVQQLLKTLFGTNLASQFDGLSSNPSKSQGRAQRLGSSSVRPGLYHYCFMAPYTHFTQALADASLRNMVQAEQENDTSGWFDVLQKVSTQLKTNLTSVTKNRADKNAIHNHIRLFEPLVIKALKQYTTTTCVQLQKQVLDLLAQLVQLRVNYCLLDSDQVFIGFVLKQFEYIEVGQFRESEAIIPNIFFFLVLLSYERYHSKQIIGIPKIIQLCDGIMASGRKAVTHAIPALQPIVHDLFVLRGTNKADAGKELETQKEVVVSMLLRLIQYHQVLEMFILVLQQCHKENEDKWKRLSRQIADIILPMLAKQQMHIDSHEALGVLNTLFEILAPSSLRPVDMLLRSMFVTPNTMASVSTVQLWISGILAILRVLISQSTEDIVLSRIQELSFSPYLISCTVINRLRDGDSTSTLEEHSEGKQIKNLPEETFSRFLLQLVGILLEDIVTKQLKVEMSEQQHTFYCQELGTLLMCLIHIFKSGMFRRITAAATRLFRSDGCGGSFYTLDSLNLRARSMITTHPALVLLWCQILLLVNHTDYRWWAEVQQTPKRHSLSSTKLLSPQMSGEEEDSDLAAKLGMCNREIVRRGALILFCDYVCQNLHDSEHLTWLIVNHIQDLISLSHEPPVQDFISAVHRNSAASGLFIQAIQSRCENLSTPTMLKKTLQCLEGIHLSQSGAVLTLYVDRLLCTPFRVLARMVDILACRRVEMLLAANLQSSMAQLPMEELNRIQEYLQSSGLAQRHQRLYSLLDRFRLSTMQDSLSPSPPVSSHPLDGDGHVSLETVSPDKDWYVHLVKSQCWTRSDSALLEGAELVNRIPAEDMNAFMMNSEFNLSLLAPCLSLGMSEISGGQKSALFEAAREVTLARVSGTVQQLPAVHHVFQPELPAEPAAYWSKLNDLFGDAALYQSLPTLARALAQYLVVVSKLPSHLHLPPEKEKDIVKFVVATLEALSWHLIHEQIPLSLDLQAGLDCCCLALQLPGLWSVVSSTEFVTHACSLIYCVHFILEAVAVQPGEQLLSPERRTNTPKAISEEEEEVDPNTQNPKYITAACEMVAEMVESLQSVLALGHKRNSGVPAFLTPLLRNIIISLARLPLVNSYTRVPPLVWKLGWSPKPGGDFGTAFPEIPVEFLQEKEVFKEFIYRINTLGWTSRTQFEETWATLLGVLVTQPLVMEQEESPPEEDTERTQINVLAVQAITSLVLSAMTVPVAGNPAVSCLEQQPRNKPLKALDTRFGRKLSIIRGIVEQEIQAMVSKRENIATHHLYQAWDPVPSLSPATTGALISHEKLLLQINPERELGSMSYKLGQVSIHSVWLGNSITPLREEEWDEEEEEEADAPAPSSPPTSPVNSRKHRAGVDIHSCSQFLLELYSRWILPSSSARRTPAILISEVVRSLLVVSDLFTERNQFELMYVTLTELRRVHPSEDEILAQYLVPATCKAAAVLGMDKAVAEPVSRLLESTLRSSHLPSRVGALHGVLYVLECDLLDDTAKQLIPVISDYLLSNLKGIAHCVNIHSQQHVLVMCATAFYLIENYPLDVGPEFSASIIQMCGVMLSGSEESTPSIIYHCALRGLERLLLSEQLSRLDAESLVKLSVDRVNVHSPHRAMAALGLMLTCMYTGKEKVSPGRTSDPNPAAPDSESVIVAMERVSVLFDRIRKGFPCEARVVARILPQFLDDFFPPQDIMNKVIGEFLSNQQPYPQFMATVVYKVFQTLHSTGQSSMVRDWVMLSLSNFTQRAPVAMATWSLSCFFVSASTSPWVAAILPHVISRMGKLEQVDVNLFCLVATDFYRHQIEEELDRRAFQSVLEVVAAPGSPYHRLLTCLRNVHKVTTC

Regarding “N-terminus Huntingtin exon 1 fragment harboring pathological (109Q) polyglutamine repeats, fused with eCFP or eYFP (domain or fragment)”, the FRET efficiency with 8R10Q in test [1] is 16.4%; in test [4], 4.5%. The FRET efficiency stood at 41.8% in test [2] and 8.7% in test [3].
